Consider 1 substance from paper PMC7184779.

The target of this assay is SADS-CoV papain-like protease 2 (PLP2) domain of nsp3, wild type (SADS-CoV).

Take “ubiquitin-AMC (from UniProt P0CG48 1-76) (natural protein)”: the kcat/Km of hydrolysis of Ub-AMC (AMC fluorescence, Michaelis-Menten fit) was 62700 M⁻¹ s⁻¹.
